Test results taken from patent US20200164029A1 (ACCELERON PHARMA, published 2020).

T1: human BMP-10 (human, UniProt O95393 317-424)
T1 construct: also called hBMP-10
T1 sequence (looked up): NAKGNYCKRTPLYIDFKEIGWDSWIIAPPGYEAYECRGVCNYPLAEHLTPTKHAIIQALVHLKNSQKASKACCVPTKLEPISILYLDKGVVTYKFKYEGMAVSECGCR

T2: human BMP-9 (human, UniProt Q9UK05 320-429)
T2 construct: also called hBMP-9
T2 sequence (looked up): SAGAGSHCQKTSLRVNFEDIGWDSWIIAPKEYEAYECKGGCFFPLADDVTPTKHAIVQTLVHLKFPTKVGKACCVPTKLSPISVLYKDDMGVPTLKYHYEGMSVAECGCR

T3: hENG(26-586) (R&D Systems, catalog #1097-EN) (human, UniProt P17813 26-586)
T3 construct: also called soluble human ENG extracellular domain
T3 sequence: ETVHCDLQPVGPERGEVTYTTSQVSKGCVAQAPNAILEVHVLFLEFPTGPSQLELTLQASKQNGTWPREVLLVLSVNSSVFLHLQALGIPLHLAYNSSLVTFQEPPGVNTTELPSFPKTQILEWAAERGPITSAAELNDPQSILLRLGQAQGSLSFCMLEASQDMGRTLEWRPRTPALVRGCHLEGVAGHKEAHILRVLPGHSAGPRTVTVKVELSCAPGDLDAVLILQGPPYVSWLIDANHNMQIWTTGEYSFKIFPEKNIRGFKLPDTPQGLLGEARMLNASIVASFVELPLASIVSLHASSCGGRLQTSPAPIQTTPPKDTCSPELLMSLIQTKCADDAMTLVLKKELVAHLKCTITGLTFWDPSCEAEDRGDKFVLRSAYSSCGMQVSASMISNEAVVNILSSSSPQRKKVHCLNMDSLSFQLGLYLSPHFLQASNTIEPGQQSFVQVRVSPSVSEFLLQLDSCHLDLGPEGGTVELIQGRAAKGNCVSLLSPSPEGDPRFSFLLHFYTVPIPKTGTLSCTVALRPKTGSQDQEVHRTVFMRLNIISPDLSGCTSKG

T4: mENG(27-581)-hFc (R&D Systems, catalog #1320-EN) (murine; human, UniProt Q63961 27-581)
T4 construct: Bought protein; not shown: Fc domain of human IgG1
T4 sequence: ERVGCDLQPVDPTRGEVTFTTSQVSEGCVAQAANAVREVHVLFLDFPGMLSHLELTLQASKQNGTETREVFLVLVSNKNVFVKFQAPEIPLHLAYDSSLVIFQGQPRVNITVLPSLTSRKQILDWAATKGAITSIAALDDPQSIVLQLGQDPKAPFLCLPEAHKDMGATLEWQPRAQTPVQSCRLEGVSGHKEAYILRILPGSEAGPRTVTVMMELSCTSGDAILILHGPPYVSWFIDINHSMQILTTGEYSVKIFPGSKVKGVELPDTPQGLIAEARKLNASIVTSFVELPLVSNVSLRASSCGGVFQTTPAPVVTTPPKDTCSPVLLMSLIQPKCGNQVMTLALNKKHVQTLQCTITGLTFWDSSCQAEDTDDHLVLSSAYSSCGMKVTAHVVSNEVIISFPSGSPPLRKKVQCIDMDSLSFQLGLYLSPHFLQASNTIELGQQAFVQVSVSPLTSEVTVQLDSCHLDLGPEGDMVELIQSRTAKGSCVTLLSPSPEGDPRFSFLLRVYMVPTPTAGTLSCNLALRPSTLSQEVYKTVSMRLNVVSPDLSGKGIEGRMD

B1: hENG(360-457)-hFc (Fc fusion)
chain: QTKCADDAMTLVLKKELVAHLKCTITGLTFWDPSCEAEDRGDKFVLRSAYSSCGMQVSASMISNEAVVNILSSSSPQRKKVHCLNMDSLSFQLGLYLS
notes: Expressed in COS cells, not purified; not shown: human IgG1 Fc domain
B2: hENG(360-437)-hFc (Fc fusion)
chain: QTKCADDAMTLVLKKELVAHLKCTITGLTFWDPSCEAEDRGDKFVLRSAYSSCGMQVSASMISNEAVVNILSSSSPQR
notes: as for B1
B3: hENG(258-346)-hFc (Fc fusion)
chain: YVSWLIDANHNMQIWTTGEYSFKIFPEKNIRGFKLPDTPQGLLGEARMLNASIVASFVELPLASIVSLHASSCGGRLQTSPAPIQTTPP
notes: not shown: human IgG1 Fc domain
B4: TGF-β receptor II (receptor, human, UniProt P37173 24-159, looked up)
chain: IPPHVQKSVNNDMIVTDNNGAVKFPQLCKFCDVRFSTCDNQKSCMSNCSITSICEKPQEVCVAVWRKNDENITLETVCHDPKLPYHDFILEDAASPKCIMKEKKKPGETFFMCSCSSDECNDNIIFSEEYNTSNPD
B5: ALK2 (receptor, human, UniProt Q04771 21-123, looked up)
chain: MEDEKPKVNPKLYMCVCEGLSCGNEDHCEGQQCFSSLSINDGFHVYQKGCFQVYEQGKMTCKTPPSPGQAVECCQGDWCNRNITAQLPTKGKSFPGTQNFHLE
notes: Member of the printed range ALK2-ALK7; also called type I receptor ALK2
B6: bone morphogenetic protein receptor II (receptor, human, UniProt Q13873 27-150, looked up)
chain: SQNQERLCAFKDPYQQDLGIGESRISHENGTILCSKGSTCYGLWEKSKGDINLVKQGCWSHIGDPQECHYEECVVTTTPPSIQNGTYRFCCCSTDLCNVNFTENFPPPDTTPLSPPHSFNRDET
notes: also called BMPRII
B7: ALK5 (receptor, human, UniProt P36897 34-126, looked up)
chain: LQCFCHLCTKDNFTCVTDGLCFVSVTETTDKVIHNSMCIAEIDLIPRDRPFVCAPSSKTGSVTTTYCCNQDHCNKIELPTTVKSSPGLGPVEL
notes: Member of the printed range ALK2-ALK7; also called type I receptor ALK5
B8: ALK4 (receptor, human, UniProt P36896 24-126, looked up)
chain: SGPRGVQALLCACTSCLQANYTCETDGACMVSIFNLDGMEHHVRTCIPKVELVPAGKPFYCLSSEDLRNTHCCYTDYCNRIDLRVPSGHLKEPEHPSMWGPVE
notes: Member of the printed range ALK2-ALK7; also called type I receptor ALK4
B9: ALK6 (receptor, human, UniProt O00238 14-126, looked up)
chain: KKEDGESTAPTPRPKVLRCKCHHHCPEDSVNNICSTDGYCFTMIEEDDSGLPVVTSGCLGLEGSDFQCRDTPIPHQRRSIECCTERNECNKDLHPTLPPLKNRDFVDGPIHHR
notes: Member of the printed range ALK2-ALK7; also called type I receptor ALK6
B10: ALK7 (receptor, human, UniProt Q8NER5 21-113, looked up)
chain: ELSPGLKCVCLLCDSSNFTCQTEGACWASVMLTNGKEQVIKSCVSLPELNAQVFCHSSNNVTKTECCFTDFCNNITLHLPTASPNAPKLGPME
notes: Member of the printed range ALK2-ALK7; also called type I receptor ALK7
B11: ALK3 (receptor, human, UniProt P36894 24-152, looked up)
chain: QNLDSMLHGTGMKSDSDQKKSENGVTLAPEDTLPFLKCYCSGHCPDDAINNTCITNGHCFAIIEEDDQGETTLASGCMKYEGSDFQCKDSPKAQLRRTIECCRTNLCNQYLQPTLPPVVIGPFFDGSIR
notes: Member of the printed range ALK2-ALK7; also called type I receptor ALK3
B12: activin receptor IIB (receptor, human, UniProt Q13705 19-134, looked up)
chain: SGRGEAETRECIYYNANWELERTNQSGLERCEGEQDKRLHCYASWRNSSGTIELVKKGCWLDDFNCYDRQECVATEENPQVYFCCCEGNFCNERFTHLPEAGGPEVTYEPPPTAPT
notes: also called ActRIIB
B13: human TGF-β2 (ligand, UniProt P61812 303-414, looked up)
chain: ALDAAYCFRNVQDNCCLRPLYIDFKRDLGWKWIHEPKGYNANFCAGACPYLWSSDTQHSRVLSLYNTINPEASASPCCVSQDLEPLTILYYIGKTPKIEQLSNMIVKSCKCS
notes: also called hTGF-β2
B14: human BMP-7 (ligand, UniProt P18075 293-431, looked up)
chain: STGSKQRSQNRSKTPKNQEALRMANVAENSSSDQRQACKKHELYVSFRDLGWQDWIIAPEGYAAYYCEGECAFPLNSYMNATNHAIVQTLVHFINPETVPKPCCAPTQLNAISVLYFDDSSNVILKKYRNMVVRACGCH
notes: also called hBMP-7
B15: human BMP-2 (ligand, UniProt P12643 283-396, looked up)
chain: QAKHKQRKRLKSSCKRHPLYVDFSDVGWNDWIVAPPGYHAFYCHGECPFPLADHLNSTNHAIVQTLVNSVNSKIPKACCVPTELSAISMLYLDENEKVVLKNYQDMVVEGCGCR
notes: also called hBMP-2
B16: hBMP-2/7 (ligand, human)
chain 1: B15 chain
chain 2: B14 chain
notes: read as the BMP-2/BMP-7 heterodimer
B17: human activin A (ligand, UniProt P08476 311-426, looked up)
chain: GLECDGKVNICCKKQFFVSFKDIGWNDWIIAPSGYHANYCEGECPSHIAGTSGSSLSFHSTVINHYRMRGHSPFANLKSCCVPTKLRPMSMLYYDDGQNIIKKDIQNMIVEECGCS
notes: also called hActivin A
B18: human TGF-β3 (ligand, UniProt P10600 301-412, looked up)
chain: ALDTNYCFRNLEENCCVRPLYIDFRQDLGWKWVHEPKGYYANFCSGPCPYLRSADTTHSTVLGLYNTLNPEASASPCCVPQDLEPLTILYYVGRTPKVEQLSNMVVKSCKCS
notes: also called hTGF-β3

Target: T1, human BMP-10
Test: SPR, captured hENG-hFc, soluble ligand

binding result | Binder
no binding (tested: 100 nM) | B1
no binding (tested: 100 nM) | B2
no binding (tested: 100 nM) | B3

Target: T2, human BMP-9
Test: SPR, captured hENG-hFc, soluble ligand

binding result | Binder
no binding (tested: 100 nM) | B1
no binding (tested: 100 nM) | B2
no binding (tested: 100 nM) | B3

Target: T3, hENG(26-586) (R&D Systems, catalog …)
Test: SPR

binding result | Binder
no binding | B4
no binding | B5
no binding | B6
no binding | B7
no binding | B8
no binding | B9
no binding | B10
no binding | B11
no binding | B12

Target: T3, hENG(26-586) (R&D Systems, catalog …)
Test: SPR (Biacore), immobilized construct, soluble ligand

binding result | Binder
no binding (tested: 25 nM) | B13
no binding (tested: 25 nM) | B14
no binding (tested: 25 nM) | B15
no binding (tested: 25 nM) | B16
no binding (tested: 25 nM) | B17
no binding (tested: 25 nM) | B18

Target: T4, mENG(27-581)-hFc (R&D Systems, catalog …)
Test: SPR (Biacore), captured construct, soluble ligand

binding result | Binder
no binding (tested: 10 nM) | B13
no binding (tested: 25 nM) | B14
no binding (tested: 25 nM) | B15
no binding (tested: 25 nM) | B16
no binding (tested: 25 nM) | B17
no binding (tested: 10 nM) | B18
